Results published in PMC8384158.

Experiments:
Assay in all cases: TAP pull-down interactome analysis (LC-MS/MS)
Settings in all cases: MCF-7 cells; read off a plot
PSMB6 = biological target: PSMB6
GANAB = biological target: GANAB
UBA1 = biological target: UBA1
SERPINH1 = biological target: SERPINH1
HSP90AB1 = biological target: HSP90AB1
HSPA9 = biological target: HSPA9
TCP1 = biological target: TCP1
PDIA4 = biological target: PDIA4
PSMD2 = biological target: PSMD2
CCT2 = biological target: CCT2
CCT5 = biological target: CCT5
CCT3 = biological target: CCT3
ERP29 = biological target: ERP29
UCHL1 = biological target: UCHL1
HSPA2 = biological target: HSPA2
RPN2 = biological target: RPN2
CCT6A = biological target: CCT6A

other: log2 relative change (PSMB6)	other: log2 relative change (GANAB)	other: log2 relative change (UBA1)	other: log2 relative change (SERPINH1)	other: log2 relative change (HSP90AB1)	other: log2 relative change (HSPA9)	other: log2 relative change (TCP1)	other: log2 relative change (PDIA4)	other: log2 relative change (PSMD2)	other: log2 relative change (CCT2)	other: log2 relative change (CCT5)	other: log2 relative change (CCT3)	other: log2 relative change (ERP29)	other: log2 relative change (UCHL1)	other: log2 relative change (HSPA2)	other: log2 relative change (RPN2)	other: log2 relative change (CCT6A)	Substance
-2.3 log2	-1.8 log2	-2 log2	-1.3 log2	-1.9 log2	-0.32 log2	-0.52 log2	-0.7 log2	-2.1 log2	-1.6 log2	2 log2	-1.4 log2						TAP–Bag-1S (from UniProt Q99933-4) R161D
-0.85 log2	-0.15 log2	0.37 log2	-0.12 log2	-0.65 log2	-0.07 log2	0.5 log2	-0.65 log2	-1.1 log2	-0.05 log2	-0.45 log2	1 log2	1.5 log2	-0.77 log2	0.77 log2	-1.5 log2		TAP–Bag-1S (from UniProt Q99933-4) R193D
-2.3 log2	-0.52 log2	-0.47 log2	-1.1 log2	-1.7 log2	-1.7 log2	-1.9 log2	-1.8 log2		-1.5 log2	-0.35 log2	-1.2 log2				-2.1 log2	-2 log2	TAP–Bag-1S (from UniProt Q99933-4) R162E
-0.9 log2	-0.47 log2	-0.2 log2	-0.85 log2	-1.2 log2	-0.32 log2	-1.7 log2	-0.8 log2	-2 log2	-0.82 log2	-1.5 log2		-2.3 log2		0.7 log2	-1.9 log2	-1.6 log2	TAP–Bag-1S (from UniProt Q99933-4) I103K
